In US20060057652A1 (UNIVERSITY OF MASSACHUSETTS, published 2006):
Substitutions are numbered along the chain they refer to.

B1: FLAG-tagged wild type Apoptin expressed from adenovirus Ad-Apwt (other)
chain: MNALQEDTPPGPSTVFRPPTSSRPLETPHCREIRIGIAGITITLSLCGCANARAPTLRSATADNSESTGFKNVPDLRTDQPKPPSKKRSCDPSEYRVSELKESLITTTPSRPRTAKRRIRL
notes: Expressed in infected H1299 or PFF cells and pulled down from lysates on anti-FLAG beads; also called FLAG-Apoptin; FLAG-tagged Apoptin
B2: triple FLAG-tagged Ap-pmNLS2 (other)
chain: B1 chain with K116A, R117A, R118A
notes: not shown: triple FLAG tag
B3: triple FLAG-tagged Ap-SV40NLS (other)
chain: MNALQEDTPPGPSTVFRPPTSSRPLETPHCREIRIGIAGITITLSLCGCANARAPTLRSATADNSESTGFKNVPDLRTDQPKPPSKKRPKKKRKV
notes: The make-up (Apoptin 1-88 plus SV40 LT NLS) is described for the GFP construct; not shown: triple FLAG tag

Tests used:
β-actin = target: T1, β-actin (UniProt P60709 2-375); experiment: anti-FLAG affinity purification from Ad-Apwt-infected H1299 cells, SDS-PAGE, MALDI-TOF
T1 construct: also called beta-actin

[1] = target: T2, anaphase promoting complex subunit 1 (APC1) (Homo sapiens, UniProt Q9H1A4 1-1944); experiment: anti-FLAG immunoprecipitation from H1299 cells, APC1 immunoblot
T2 construct: Endogenous protein in lysates of H1299 (or PFF) cells, detected with a polyclonal anti-APC1 antibody or by MALDI-TOF; also called Cyclosome subunit 1; Protein TSG24
T2 sequence (Q9H1A4 whole entry, one chain of several): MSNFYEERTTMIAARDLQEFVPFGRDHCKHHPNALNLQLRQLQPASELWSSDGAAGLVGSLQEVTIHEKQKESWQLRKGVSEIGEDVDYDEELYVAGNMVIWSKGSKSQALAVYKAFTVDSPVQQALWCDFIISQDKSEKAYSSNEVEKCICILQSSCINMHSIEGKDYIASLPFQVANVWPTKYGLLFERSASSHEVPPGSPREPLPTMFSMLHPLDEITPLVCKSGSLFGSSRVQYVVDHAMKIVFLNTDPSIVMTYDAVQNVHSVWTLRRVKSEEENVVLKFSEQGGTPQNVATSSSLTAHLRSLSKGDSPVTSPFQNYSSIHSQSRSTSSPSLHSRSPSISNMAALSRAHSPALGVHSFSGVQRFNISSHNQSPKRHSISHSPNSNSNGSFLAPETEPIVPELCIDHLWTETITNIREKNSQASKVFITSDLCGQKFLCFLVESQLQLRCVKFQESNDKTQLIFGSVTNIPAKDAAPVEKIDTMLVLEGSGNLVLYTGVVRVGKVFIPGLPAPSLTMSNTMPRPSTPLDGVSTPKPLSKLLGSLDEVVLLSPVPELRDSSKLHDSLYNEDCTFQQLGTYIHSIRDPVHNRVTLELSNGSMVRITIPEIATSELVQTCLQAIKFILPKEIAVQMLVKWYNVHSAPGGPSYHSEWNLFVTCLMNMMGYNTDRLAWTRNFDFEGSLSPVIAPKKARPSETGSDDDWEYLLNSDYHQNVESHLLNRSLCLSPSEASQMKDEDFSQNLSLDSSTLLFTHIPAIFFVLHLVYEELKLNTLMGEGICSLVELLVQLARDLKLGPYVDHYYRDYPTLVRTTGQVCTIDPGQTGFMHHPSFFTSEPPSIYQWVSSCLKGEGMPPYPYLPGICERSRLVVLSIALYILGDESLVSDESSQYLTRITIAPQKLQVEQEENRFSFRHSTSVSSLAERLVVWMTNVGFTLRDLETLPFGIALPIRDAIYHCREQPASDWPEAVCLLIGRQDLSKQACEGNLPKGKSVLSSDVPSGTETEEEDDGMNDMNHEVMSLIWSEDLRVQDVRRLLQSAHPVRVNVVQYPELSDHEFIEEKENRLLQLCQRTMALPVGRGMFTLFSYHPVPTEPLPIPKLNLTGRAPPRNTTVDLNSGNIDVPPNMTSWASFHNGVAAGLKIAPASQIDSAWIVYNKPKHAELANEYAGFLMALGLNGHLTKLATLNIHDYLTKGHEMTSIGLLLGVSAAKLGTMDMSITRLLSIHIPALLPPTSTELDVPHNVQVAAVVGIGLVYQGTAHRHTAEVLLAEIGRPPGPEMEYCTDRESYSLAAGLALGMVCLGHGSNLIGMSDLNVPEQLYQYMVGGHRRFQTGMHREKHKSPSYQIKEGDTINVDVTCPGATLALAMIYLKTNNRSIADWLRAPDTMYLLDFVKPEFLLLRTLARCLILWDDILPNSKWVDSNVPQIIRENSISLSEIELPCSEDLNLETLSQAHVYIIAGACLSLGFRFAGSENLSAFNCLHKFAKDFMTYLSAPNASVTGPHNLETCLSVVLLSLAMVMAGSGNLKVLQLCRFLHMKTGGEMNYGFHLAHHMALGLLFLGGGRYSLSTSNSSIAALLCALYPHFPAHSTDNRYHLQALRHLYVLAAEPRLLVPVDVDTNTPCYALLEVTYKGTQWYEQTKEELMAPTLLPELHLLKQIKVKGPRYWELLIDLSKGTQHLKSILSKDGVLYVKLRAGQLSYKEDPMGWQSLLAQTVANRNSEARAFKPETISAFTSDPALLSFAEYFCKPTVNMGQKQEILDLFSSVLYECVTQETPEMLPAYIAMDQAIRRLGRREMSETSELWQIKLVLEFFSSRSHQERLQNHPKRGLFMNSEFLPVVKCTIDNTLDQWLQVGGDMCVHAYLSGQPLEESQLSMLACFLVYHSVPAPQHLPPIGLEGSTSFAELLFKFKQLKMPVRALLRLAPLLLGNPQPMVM

| Binder | binding result (β-actin) | binding result [1] |
| --- | --- | --- |
| B1 | binds |  |
| B2 |  | no binding |
| B3 |  | no binding |
